Reference: paper PMC5719408, “Multivalent cross-linking of actin filaments and microtubules through the microtubule-associated protein Tau” (Nature Communications, 2017)

Biological target: NBD-conjugated actin from α-skeletal muscle (F-actin) (UniProt P68135)
Assay: NBD-F-actin fluorescence titration
Conditions: reference: unphosphorylated Tau(254–284) peptide; sites S262

In the case of “Tau (2N4R) 254-284 (from UniProt P10636-8) pS262 Tau(254–284) peptide”, the “binding against the reference” value is reported as “weaker”.
